Reference: PMC10540216, “Activity Guided Azide-methyllysine Photo-trapping for Substrate Profiling of Lysine Demethylases” (Journal of the American Chemical Society, 2023)

B1: SYAM_HUMAN (protein, UniProt Q5JTZ9 24-985, looked up)
Alanine--tRNA ligase, …: GLSHRPLSSEPPAAKASAVRAAFLNFFRDRHGHRLVPSASVRPRGDPSLLFVNAGMNQFKPIFLGTVDPRSEMAGFRRVANSQKCVRAGGHHNDLEDVGRDLSHHTFFEMLGNWAFGGEYFKEEACNMAWELLTQVYGIPEERLWISYFDGDPKAGLDPDLETRDIWLSLGVPASRVLSFGPQENFWEMGDTGPCGPCTEIHYDLAGGVGAPQLVELWNLVFMQHNREADGSLQPLPQRHVDTGMGLERLVAVLQGKHSTYDTDLFSPLLNAIQQGCRAPPYLGRVGVADEGRTDTAYRVVADHIRTLSVCISDGIFPGMSGPPLVLRRILRRAVRFSMEILKAPPGFLGSLVPVVVETLGDAYPELQRNSAQIANLVSEDEAAFLASLERGRRIIDRTLRTLGPSDMFPAEVAWSLSLCGDLGLPLDMVELMLEEKGVQLDSAGLERLAQEEAQHRARQAEPVQKQGLWLDVHALGELQRQGVPPTDDSPKYNYSLRPSGSYEFGTCEAQVLQLYTEDGTAVASVGKGQRCGLLLDRTNFYAEQGGQASDRGYLVRAGQEDVLFPVARAQVCGGFILHEAVAPECLRLGDQVQLHVDEAWRLGCMAKHTATHLLNWALRQTLGPGTEQQGSHLNPEQLRLDVTTQTPLTPEQLRAVENTVQEAVGQDEAVYMEEVPLALTAQVPGLRSLDEVYPDPVRVVSVGVPVAHALDPASQAALQTSVELCCGTHLLRTGAVGDLVIIGDRQLSKGTTRLLAVTGEQAQQARELGQSLAQEVKAATERLSLGSRDVAEALRLSKDIGRLIEAVETAVMPQWQRRELLATVKMLQRRANTAIRKLQMGQAAKKTQELLERHSKGPLIVDTVSAESLSVLVKVVRQLCEQAPSTSVLLLSPQPMGKVLCACQVAQGAMPTFTAEAWALAVCSHMGGKAWGSRVVAQGTGSTTDLEAALSIAQTYALSQL
B2: PABP4_HUMAN (protein, UniProt Q13310 1-644, looked up)
Polyadenylate-binding protein …: MNAAASSYPMASLYVGDLHSDVTEAMLYEKFSPAGPVLSIRVCRDMITRRSLGYAYVNFQQPADAERALDTMNFDVIKGKPIRIMWSQRDPSLRKSGVGNVFIKNLDKSIDNKALYDTFSAFGNILSCKVVCDENGSKGYAFVHFETQEAADKAIEKMNGMLLNDRKVFVGRFKSRKEREAELGAKAKEFTNVYIKNFGEEVDDESLKELFSQFGKTLSVKVMRDPNGKSKGFGFVSYEKHEDANKAVEEMNGKEISGKIIFVGRAQKKVERQAELKRKFEQLKQERISRYQGVNLYIKNLDDTIDDEKLRKEFSPFGSITSAKVMLEDGRSKGFGFVCFSSPEEATKAVTEMNGRIVGSKPLYVALAQRKEERKAHLTNQYMQRVAGMRALPANAILNQFQPAAGGYFVPAVPQAQGRPPYYTPNQLAQMRPNPRWQQGGRPQGFQGMPSAIRQSGPRPTLRHLAPTGSECPDRLAMDFGGAGAAQQGLTDSCQSGGVPTAVQNLAPRAAVAAAAPRAVAPYKYASSVRSPHPAIQPLQAPQPAVHVQGQEPLTASMLAAAPPQEQKQMLGERLFPLIQTMHSNLAGKITGMLLEIDNSELLHMLESPESLRSKVDEAVAVLQAHHAKKEAAQKVGAVAAATS
B3: RBM14_HUMAN (protein, UniProt Q96PK6 1-669, looked up)
RNA-binding protein 14: MKIFVGNVDGADTTPEELAALFAPYGTVMSCAVMKQFAFVHMRENAGALRAIEALHGHELRPGRALVVEMSRPRPLNTWKIFVGNVSAACTSQELRSLFERRGRVIECDVVKDYAFVHMEKEADAKAAIAQLNGKEVKGKRINVELSTKGQKKGPGLAVQSGDKTKKPGAGDTAFPGTGGFSATFDYQQAFGNSTGGFDGQARQPTPPFFGRDRSPLRRSPPRASYVAPLTAQPATYRAQPSVSLGAAYRAQPSASLGVGYRTQPMTAQAASYRAQPSVSLGAPYRGQLASPSSQSAAASSLGPYGGAQPSASALSSYGGQAAAASSLNSYGAQGSSLASYGNQPSSYGAQAASSYGVRAAASSYNTQGAASSLGSYGAQAASYGAQSAASSLAYGAQAASYNAQPSASYNAQSAPYAAQQAASYSSQPAAYVAQPATAAAYASQPAAYAAQATTPMAGSYGAQPVVQTQLNSYGAQASMGLSGSYGAQSAAAATGSYGAAAAYGAQPSATLAAPYRTQSSASLAASYAAQQHPQAAASYRGQPGNAYDGAGQPSAAYLSMSQGAVANANSTPPPYERTRLSPPRASYDDPYKKAVAMSKRYGSDRRLAELSDYRRLSESQLSFRRSPTKSSLDYRRLPDAHSDYARYSGSYNDYLRAAQMHSGYQRRM
B4: DDX1_HUMAN (protein, UniProt Q92499 1-740, looked up)
ATP-dependent RNA helicase …: MAAFSEMGVMPEIAQAVEEMDWLLPTDIQAESIPLILGGGDVLMAAETGSGKTGAFSIPVIQIVYETLKDQQEGKKGKTTIKTGASVLNKWQMNPYDRGSAFAIGSDGLCCQSREVKEWHGCRATKGLMKGKHYYEVSCHDQGLCRVGWSTMQASLDLGTDKFGFGFGGTGKKSHNKQFDNYGEEFTMHDTIGCYLDIDKGHVKFSKNGKDLGLAFEIPPHMKNQALFPACVLKNAELKFNFGEEEFKFPPKDGFVALSKAPDGYIVKSQHSGNAQVTQTKFLPNAPKALIVEPSRELAEQTLNNIKQFKKYIDNPKLRELLIIGGVAARDQLSVLENGVDIVVGTPGRLDDLVSTGKLNLSQVRFLVLDEADGLLSQGYSDFINRMHNQIPQVTSDGKRLQVIVCSATLHSFDVKKLSEKIMHFPTWVDLKGEDSVPDTVHHVVVPVNPKTDRLWERLGKSHIRTDDVHAKDNTRPGANSPEMWSEAIKILKGEYAVRAIKEHKMDQAIIFCRTKIDCDNLEQYFIQQGGGPDKKGHQFSCVCLHGDRKPHERKQNLERFKKGDVRFLICTDVAARGIDIHGVPYVINVTLPDEKQNYVHRIGRVGRAERMGLAISLVATEKEKVWYHVCSSRGKGCYNTRLKEDGGCTIWYNEMQLLSEIEEHLNCTISQVEPDIKVPVDEFDGKVTYGQKRAAGGGSYKGHVDILAPTVQELAALEKEAQTSFLHLGYLPNQLFRTF
B5: SFPQ_HUMAN (protein, UniProt P23246 1-707, looked up)
Splicing factor, proline- and …: MSRDRFRSRGGGGGGFHRRGGGGGRGGLHDFRSPPPGMGLNQNRGPMGPGPGQSGPKPPIPPPPPHQQQQQPPPQQPPPQQPPPHQPPPHPQPHQQQQPPPPPQDSSKPVVAQGPGPAPGVGSAPPASSSAPPATPPTSGAPPGSGPGPTPTPPPAVTSAPPGAPPPTPPSSGVPTTPPQAGGPPPPPAAVPGPGPGPKQGPGPGGPKGGKMPGGPKPGGGPGLSTPGGHPKPPHRGGGEPRGGRQHHPPYHQQHHQGPPPGGPGGRSEEKISDSEGFKANLSLLRRPGEKTYTQRCRLFVGNLPADITEDEFKRLFAKYGEPGEVFINKGKGFGFIKLESRALAEIAKAELDDTPMRGRQLRVRFATHAAALSVRNLSPYVSNELLEEAFSQFGPIERAVVIVDDRGRSTGKGIVEFASKPAARKAFERCSEGVFLLTTTPRPVIVEPLEQLDDEDGLPEKLAQKNPMYQKERETPPRFAQHGTFEYEYSQRWKSLDEMEKQQREQVEKNMKDAKDKLESEMEDAYHEHQANLLRQDLMRRQEELRRMEELHNQEMQKRKEMQLRQEEERRRREEEMMIRQREMEEQMRRQREESYSRMGYMDPRERDMRMGGGGAMNMGDPYGSGGQKFPPLGGGGGIGYEANPGVPPATMSGSMMGSDMRTERFGQGGAGPVGGQGPRGMGPGTPAGYGRGREEYEGPNKKPRF
B6: ZYX_HUMAN (protein, UniProt Q15942 2-572, looked up)
Zyxin: AAPRPSPAISVSVSAPAFYAPQKKFGPVVAPKPKVNPFRPGDSEPPPAPGAQRAQMGRVGEIPPPPPEDFPLPPPPLAGDGDDAEGALGGAFPPPPPPIEESFPPAPLEEEIFPSPPPPPEEEGGPEAPIPPPPQPREKVSSIDLEIDSLSSLLDDMTKNDPFKARVSSGYVPPPVATPFSSKSSTKPAAGGTAPLPPWKSPSSSQPLPQVPAPAQSQTQFHVQPQPQPKPQVQLHVQSQTQPVSLANTQPRGPPASSPAPAPKFSPVTPKFTPVASKFSPGAPGGSGSQPNQKLGHPEALSAGTGSPQPPSFTYAQQREKPRVQEKQHPVPPPAQNQNQVRSPGAPGPLTLKEVEELEQLTQQLMQDMEHPQRQNVAVNELCGRCHQPLARAQPAVRALGQLFHIACFTCHQCAQQLQGQQFYSLEGAPYCEGCYTDTLEKCNTCGEPITDRMLRATGKAYHPHCFTCVVCARPLEGTSFIVDQANRPHCVPDYHKQYAPRCSVCSEPIMPEPGRDETVRVVALDKNFHMKCYKCEDCGKPLSIEADDNGCFPLDGHVLCRKCHTARAQT
B7: MTA2_HUMAN (protein, UniProt O94776 1-668, looked up)
Metastasis-associated protein …: MAANMYRVGDYVYFENSSSNPYLVRRIEELNKTANGNVEAKVVCLFRRRDISSSLNSLADSNAREFEEESKQPGVSEQQRHQLKHRELFLSRQFESLPATHIRGKCSVTLLNETDILSQYLEKEDCFFYSLVFDPVQKTLLADQGEIRVGCKYQAEIPDRLVEGESDNRNQQKMEMKVWDPDNPLTDRQIDQFLVVARAVGTFARALDCSSSIRQPSLHMSAAAASRDITLFHAMDTLQRNGYDLAKAMSTLVPQGGPVLCRDEMEEWSASEAMLFEEALEKYGKDFNDIRQDFLPWKSLASIVQFYYMWKTTDRYIQQKRLKAAEADSKLKQVYIPTYTKPNPNQIISVGSKPGMNGAGFQKGLTCESCHTTQSAQWYAWGPPNMQCRLCASCWIYWKKYGGLKTPTQLEGATRGTTEPHSRGHLSRPEAQSLSPYTTSANRAKLLAKNRQTFLLQTTKLTRLARRMCRDLLQPRRAARRPYAPINANAIKAECSIRLPKAAKTPLKIHPLVRLPLATIVKDLVAQAPLKPKTPRGTKTPINRNQLSQNRGLGGIMVKRAYETMAGAGVPFSANGRPLASGIRSSSQPAAKRQKLNPADAPNPVVFVATKDTRALRKALTHLEMRRAARRPNLPLKVKPTLIAVRPPVPLPAPSHPASTNEPIVLED
B8: PLOD2_HUMAN (protein, UniProt O00469 26-737, looked up)
Procollagen-lysine,2-oxoglutar …: ADSEKPSSIPTDKLLVITVATKESDGFHRFMQSAKYFNYTVKVLGQGEEWRGGDGINSIGGGQKVRLMKEVMEHYADQDDLVVMFTECFDVIFAGGPEEVLKKFQKANHKVVFAADGILWPDKRLADKYPVVHIGKRYLNSGGFIGYAPYVNRIVQQWNLQDNDDDQLFYTKVYIDPLKREAINITLDHKCKIFQTLNGAVDEVVLKFENGKARAKNTFYETLPVAINGNGPTKILLNYFGNYVPNSWTQDNGCTLCEFDTVDLSAVDVHPNVSIGVFIEQPTPFLPRFLDILLTLDYPKEALKLFIHNKEVYHEKDIKVFFDKAKHEIKTIKIVGPEENLSQAEARNMGMDFCRQDEKCDYYFSVDADVVLTNPRTLKILIEQNRKIIAPLVTRHGKLWSNFWGALSPDGYYARSEDYVDIVQGNRVGVWNVPYMANVYLIKGKTLRSEMNERNYFVRDKLDPDMALCRNAREMGVFMYISNRHEFGRLLSTANYNTSHYNNDLWQIFENPVDWKEKYINRDYSKIFTENIVEQPCPDVFWFPIFSEKACDELVEEMEHYGKWSGGKHHDSRISGGYENVPTDDIHMKQVDLENVWLHFIREFIAPVTLKVFAGYYTKGFALLNFVVKYSPERQRSLRPHHDASTFTINIALNNVGEDFQGGGCKFLRYNCSIESPRKGWSFMHPGRLTHLHEGLPVKNGTRYIAVSFIDP

System: KDM4A-I71AzF
Test: CASI: photo-crosslinking with HEK293T cell extracts, StrepTactin enrichment and LC-MS/MS proteomics;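 further: lysates from HEK293T cells pretreated with a KDM4 inhibitor to raise proteome methylation, affinity-purified after ±UV, gel-resolved, trypsin-digested, with exclusive unique peptides per protein averaged per condition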
Assay type: binding, human
Settings: sheet "Final results but with 0.01"

Row | Molecule | Fold change (+UV/-UV)
1 | B1 | 0.625
2 | B2 | 0
3 | B3 | 2
4 | B4 | 1.333
5 | B5 | 0.9
6 | B6 | 0
7 | B7 | 4
8 | B8 | 0.75
